T1: human FcγRIIAH131 expressed on HEK293 cells (human, UniProt P12318 34-317)
T1 construct: whole, on cells
T1 sequence (looked up): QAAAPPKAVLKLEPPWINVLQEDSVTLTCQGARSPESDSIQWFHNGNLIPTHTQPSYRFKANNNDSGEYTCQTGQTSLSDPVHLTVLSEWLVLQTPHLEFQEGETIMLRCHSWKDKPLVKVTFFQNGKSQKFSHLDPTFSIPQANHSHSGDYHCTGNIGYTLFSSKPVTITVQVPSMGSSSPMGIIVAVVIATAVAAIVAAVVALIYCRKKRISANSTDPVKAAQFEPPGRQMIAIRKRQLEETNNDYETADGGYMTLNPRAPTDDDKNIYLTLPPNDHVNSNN

T2: human FcγRIIAR131 expressed on HEK293 cells (human, UniProt P12318 34-317)
T2 construct: whole, on cells
T2 sequence (looked up): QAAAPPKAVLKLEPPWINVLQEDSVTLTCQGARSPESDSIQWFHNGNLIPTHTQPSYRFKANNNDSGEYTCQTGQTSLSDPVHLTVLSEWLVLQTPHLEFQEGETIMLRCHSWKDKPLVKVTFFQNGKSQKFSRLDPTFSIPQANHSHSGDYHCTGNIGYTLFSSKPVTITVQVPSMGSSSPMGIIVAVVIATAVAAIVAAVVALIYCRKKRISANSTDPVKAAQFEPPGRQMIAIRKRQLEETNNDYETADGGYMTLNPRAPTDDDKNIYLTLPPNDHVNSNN

T3: human FcγRIIB expressed on HEK293 cells (human, UniProt P31994 43-310)
T3 construct: whole, on cells
T3 sequence (looked up): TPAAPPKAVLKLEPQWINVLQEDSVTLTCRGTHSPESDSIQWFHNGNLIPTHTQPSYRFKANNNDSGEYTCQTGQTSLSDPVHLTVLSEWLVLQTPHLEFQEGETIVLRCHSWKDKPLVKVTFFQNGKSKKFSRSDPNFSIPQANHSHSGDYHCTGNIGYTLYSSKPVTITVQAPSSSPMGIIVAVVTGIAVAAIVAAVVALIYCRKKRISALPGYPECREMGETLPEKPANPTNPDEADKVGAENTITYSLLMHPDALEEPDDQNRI


Columns and labels:
[1] = molecular target: T4, human FcγRI expressed on HEK293 cells (human, UniProt P12314 16-374); test: FACS, 10 µg/mL mAb as immune complex with biotin-PD-L1/His and neutravidin on FcγR-expressing HEK293 cells
T4 construct: whole, on cells; Co-expressed with FcRγ subunit
Excerpt: (§1) Such bindings are thought to be more relevant under physiological condition, as the binding strength between monomeric γFc and most of the FcγRs is very weak. Human immune system also takes advantage of this mechanism to avoid non-specific activation of FcγRs by monomeric IgG which are present at high levels in serum.

[2] = molecular target: T1, human FcγRIIAH131 expressed on HEK293 …; test: as above
Excerpt: as §1

[3] = molecular target: T2, human FcγRIIAR131 expressed on HEK293 …; test: as above
Excerpt: as §1

[4] = molecular target: T3, human FcγRIIB expressed on HEK293 cells; test: as above
Excerpt: as §1

[5] = molecular target: T5, human FcγRIIIAF158 expressed on HEK293 cells (human, UniProt P08637 17-254); test: as above
T5 construct: whole, on cells; Co-expressed with FcRγ subunit
Excerpt: as §1

[6] = molecular target: T6, human FcγRIIIAV158 expressed on cells (human, UniProt P08637 17-254); test: as above
T6 construct: whole, on cells; Co-expressed with FcRγ subunit; on HEK293 cells in the FACS assays, on NK92MI/CD16V cells in the ADCC assay; also called CD16 (V158 allele)
Excerpt: as §1

human C1q = molecular target: T7, human C1q (human, UniProt P02745 23-245; P02746 28-253; P02747 29-245); test: ELISA: antibody coated on the plate at the x-axis concentration, human C1q added (2 µg/mL), bound C1q detected with an anti-C1q mAb
T7 construct: Bought (Cat. No. A400, Quidel); also called complement component C1q
Description: The ELISA-based C1q binding assay was done by conventional ELISA method with minor modification. […] After blocking and washing, the wells were incubated with 2 μg/mL of human C1q (Cat. No. A400, Quidel, San Diego, USA) at room temperature for 2 hours.

[7] = molecular target: T8, human PD-L1, full length, expressed on cells (human, UniProt Q9NZQ7 19-290); test: FACS on HEK293/PD-L1 cells
T8 construct: also called HEK293/PD-L1 cells; HEK293/OS8/PD-L1 cells
Description: FACS binding analysis was performed as described in previous sections.

[8] = molecular target: T8, human PD-L1, full length, expressed on …; test: FACS competition with CD80/Fc on HEK293/PD-L1 cells
human PD-L1-ECD/His = molecular target: T9, human PD-L1-ECD/His (human, UniProt Q9NZQ7 19-238); test: ELISA on coated human PD-L1/His, anti-human Fc-HRP; x-axis printed as 'Ag concentration', mAb concentration according to paragraph 44 [A]
T9 construct: Expressed in 293-F cells; also called PD-L1/His; human PD-L1/His
Description: The monkey PD-L1/His and murine PD-L1/His were expressed and purified in a similar way to the human PD-L1/His as described earlier. […] The synthesized full length mAb was named as Y1-IgG1mc. The ELISA assay was performed essentially in the same way as described in the previous section. Briefly, 200 ng of PD-L1 protein was coated on each well of Nunc MaxiSorp ELISA plate (Cat. No. 442404, Nunc, Thermo Fisher). After washing and blocking, indicated concentrations of anti-PD-L1 mAbs were added and incubated at room temperature for 1 hour. After washing, the bound anti-PD-L1 mAbs were detected using a HRP-conjugated goat anti-human Fc antibody (Cat. No. A0170, Sigma).

T7 sequence (P02745 23-245, chain 1 of 3): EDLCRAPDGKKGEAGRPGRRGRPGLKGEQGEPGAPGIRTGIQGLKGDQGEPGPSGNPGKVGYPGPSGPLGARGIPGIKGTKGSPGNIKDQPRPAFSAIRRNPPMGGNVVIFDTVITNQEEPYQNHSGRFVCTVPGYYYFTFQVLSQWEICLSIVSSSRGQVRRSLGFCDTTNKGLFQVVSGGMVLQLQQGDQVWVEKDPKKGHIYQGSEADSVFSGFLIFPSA
T7 sequence (P02746 28-253, chain 2 of 3): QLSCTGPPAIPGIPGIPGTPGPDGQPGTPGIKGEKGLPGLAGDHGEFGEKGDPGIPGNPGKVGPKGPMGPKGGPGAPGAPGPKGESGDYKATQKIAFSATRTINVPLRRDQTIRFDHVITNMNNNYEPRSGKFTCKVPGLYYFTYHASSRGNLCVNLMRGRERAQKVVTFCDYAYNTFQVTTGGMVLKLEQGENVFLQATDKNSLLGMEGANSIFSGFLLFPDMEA
T7 sequence (P02747 29-245, chain 3 of 3): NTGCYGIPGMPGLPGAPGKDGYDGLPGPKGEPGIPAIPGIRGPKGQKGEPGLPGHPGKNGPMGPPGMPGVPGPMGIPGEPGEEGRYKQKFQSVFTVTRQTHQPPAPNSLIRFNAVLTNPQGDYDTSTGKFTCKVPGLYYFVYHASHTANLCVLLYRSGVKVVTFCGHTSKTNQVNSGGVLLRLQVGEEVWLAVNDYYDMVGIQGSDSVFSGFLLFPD
T5 sequence (P08637 17-254): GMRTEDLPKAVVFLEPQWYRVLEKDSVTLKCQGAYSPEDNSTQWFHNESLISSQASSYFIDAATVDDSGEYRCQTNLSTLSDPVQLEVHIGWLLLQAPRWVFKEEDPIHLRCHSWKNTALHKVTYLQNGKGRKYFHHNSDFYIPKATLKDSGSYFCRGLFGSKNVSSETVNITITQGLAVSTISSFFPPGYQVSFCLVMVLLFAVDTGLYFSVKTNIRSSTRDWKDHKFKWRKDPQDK
T6 sequence (P08637 17-254 F176V limits assumed): as the sequence (P08637 17-254) above, with F160V counted along it
T8 sequence (Q9NZQ7 19-290 limits assumed): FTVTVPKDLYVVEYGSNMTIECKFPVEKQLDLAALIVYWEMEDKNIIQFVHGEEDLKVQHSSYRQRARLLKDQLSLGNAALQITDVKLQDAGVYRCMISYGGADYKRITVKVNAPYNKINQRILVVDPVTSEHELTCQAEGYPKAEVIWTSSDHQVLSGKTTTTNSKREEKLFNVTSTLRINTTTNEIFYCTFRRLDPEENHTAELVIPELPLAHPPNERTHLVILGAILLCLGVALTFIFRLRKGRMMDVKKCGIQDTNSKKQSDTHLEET
T9 sequence (Q9NZQ7 19-238): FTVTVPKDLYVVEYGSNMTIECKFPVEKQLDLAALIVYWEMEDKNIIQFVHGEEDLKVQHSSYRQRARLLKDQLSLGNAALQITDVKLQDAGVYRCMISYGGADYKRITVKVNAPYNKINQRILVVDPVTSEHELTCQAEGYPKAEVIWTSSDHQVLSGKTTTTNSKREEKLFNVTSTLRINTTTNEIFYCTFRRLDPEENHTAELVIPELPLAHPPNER
T4 sequence (P12314 16-374): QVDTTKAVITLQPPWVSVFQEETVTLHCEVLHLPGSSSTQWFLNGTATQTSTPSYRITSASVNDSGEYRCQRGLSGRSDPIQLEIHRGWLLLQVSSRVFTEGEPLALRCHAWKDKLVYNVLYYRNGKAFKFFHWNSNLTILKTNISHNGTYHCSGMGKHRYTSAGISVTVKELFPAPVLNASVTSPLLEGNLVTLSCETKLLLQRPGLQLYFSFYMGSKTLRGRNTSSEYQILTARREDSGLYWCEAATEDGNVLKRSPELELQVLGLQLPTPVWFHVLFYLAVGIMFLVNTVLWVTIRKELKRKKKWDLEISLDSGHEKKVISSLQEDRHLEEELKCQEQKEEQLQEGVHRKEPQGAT

Binder	MFI [1] [MFI]	MFI [2] [MFI]	MFI [3] [MFI]	MFI [4] [MFI]	MFI [5] [MFI]	MFI [6] [MFI]	binding result (human C1q)	EC50 [7] [µg/mL]	Top MFI [7] [MFI]	IC50 [8] [µg/mL]	Max inhibition [8] [%]	EC50 (read off the curve) (human PD-L1-ECD/His) [µg/mL]
hu333-4A2-IgG1wt (antibody, light chain constant region (kappa) not tied to an entry for this form) heavy: not shown VL: DIQMTQSPSSLSASVGDRVTITCKASQDVGIVVAWYQQKPGKAPKLLIYWASIRHTGVPSRFSGSGSGTEFTLTISSLQPDDFATYYCQQYSNYPLYTFGQGTKVEIK	3260	599	159	539	74.2	309	binds					
hu333-4B2-IgG1mc (antibody) heavy: EVQLVESGGGLVQPGGSLRLSCAVSGFSLTSYGVHWVRQAPGKGLEWVAVIWAGGSTNYADSVKGRFTISKDTSKNTVYLQMNSLRAEDTAVYYCAKPYGTSAMDYWGQGTLVTVSSASTKGPSVFPLAPSSKSTSGGTAALGCLVKDYFPEPVTVSWNSGALTSGVHTFPAVLQSSGLYSLSSVVTVPSSSLGTQTYICNVNHKPSNTKVDKKVEPKSCDKTHTCPPCPAPPAAAPSVFLFPPKPKDTLMISRTPEVTCVVVDVSHEDPEVKFNWYVDGVEVHNAKTKPREEQYNSTYRVVSVLTVLHQDWLNGKEYKCKVSNKALAAPIEKTISKAKGQPREPQVYTLPPSRDELTKNQVSLTCLVKGFYPSDIAVEWESNGQPENNYKTTPPVLDSDGSFFLYSKLTVDKSRWQQGNVFSCSVMHEALHNHYTQKSLSLSPGK light: DIQMTQSPSSLSASVGDRVTITCKASQDVGIVVAWYQQKPGKAPKLLIYWASIRHTGVPSRFSGSGSGTEFTLTISSLQPDDFATYYCQQYSNYPLYTFGQGTKVEIKRTVAAPSVFIFPPSDEQLKSGTASVVCLLNNFYPREAKVQWKVDNALQSGNSQESVTEQDSKDSTYSLSSTLTLSKADYEKHKVYACEVTHQGLSSPVTKSFNRGEC	7.01	8.09	5.28	5.03	6.81	4.89	no binding (tested: about 20 µg/ml (coating concentration))	0.092	1390	0.103	100	~0.03
hu333-4A2-IgG1mc (antibody) heavy: EVQLVESGGGLVQPGGSLRLSCAVSGFSLTSYGVHWVRQAPGKGLEWVAVIWAGGSTNYVDSVKGRFTISKDNAKNTVYLQMNSLRAEDTAVYYCAKPYGTSAMDYWGQGTLVTVSSASTKGPSVFPLAPSSKSTSGGTAALGCLVKDYFPEPVTVSWNSGALTSGVHTFPAVLQSSGLYSLSSVVTVPSSSLGTQTYICNVNHKPSNTKVDKKVEPKSCDKTHTCPPCPAPPAAAPSVFLFPPKPKDTLMISRTPEVTCVVVDVSHEDPEVKFNWYVDGVEVHNAKTKPREEQYNSTYRVVSVLTVLHQDWLNGKEYKCKVSNKALAAPIEKTISKAKGQPREPQVYTLPPSRDELTKNQVSLTCLVKGFYPSDIAVEWESNGQPENNYKTTPPVLDSDGSFFLYSKLTVDKSRWQQGNVFSCSVMHEALHNHYTQKSLSLSPGK light: DIQMTQSPSSLSASVGDRVTITCKASQDVGIVVAWYQQKPGKAPKLLIYWASIRHTGVPSRFSGSGSGTEFTLTISSLQPDDFATYYCQQYSNYPLYTFGQGTKVEIKRTVAAPSVFIFPPSDEQLKSGTASVVCLLNNFYPREAKVQWKVDNALQSGNSQESVTEQDSKDSTYSLSSTLTLSKADYEKHKVYACEVTHQGLSSPVTKSFNRGEC	7	7.53	5.38	5.05	6.44	5.43	no binding (tested: about 20 µg/ml (coating concentration))	0.098	1360	0.078	100	~0.03
hu333-4B2-IgG1mf (antibody) heavy: EVQLVESGGGLVQPGGSLRLSCAVSGFSLTSYGVHWVRQAPGKGLEWVAVIWAGGSTNYADSVKGRFTISKDTSKNTVYLQMNSLRAEDTAVYYCAKPYGTSAMDYWGQGTLVTVSSASTKGPSVFPLAPSSKSTSGGTAALGCLVKDYFPEPVTVSWNSGALTSGVHTFPAVLQSSGLYSLSSVVTVPSSSLGTQTYICNVNHKPSNTKVDKKVEPKSCDKTHTCPPCPAPPAAGPSVFLFPPKPKDTLMISRTPEVTCVVVDVSHEDPEVKFNWYVDGVEVHNAKTKPREEQYNSTYRVVSVLTVLHQDWLNGKEYKCKVSNKALAAPIEKTISKAKGQPREPQVYTLPPSRDELTKNQVSLTCLVKGFYPSDIAVEWESNGQPENNYKTTPPVLDSDGSFFLYSKLTVDKSRWQQGNVFSCSVMHEALHNHYTQKSLSLSPGK light: DIQMTQSPSSLSASVGDRVTITCKASQDVGIVVAWYQQKPGKAPKLLIYWASIRHTGVPSRFSGSGSGTEFTLTISSLQPDDFATYYCQQYSNYPLYTFGQGTKVEIKRTVAAPSVFIFPPSDEQLKSGTASVVCLLNNFYPREAKVQWKVDNALQSGNSQESVTEQDSKDSTYSLSSTLTLSKADYEKHKVYACEVTHQGLSSPVTKSFNRGEC	7.11	7.27	4.92	5	6.76	4.83	no binding (tested: about 20 µg/ml (coating concentration))	0.102	1340	0.118	100	~0.03
